According to patent publication US8679765B2, “Methods and compositions for diagnosis and treatment of malignant and non-malignant gammopathies” (Ludwig Institute for Cancer Research Ltd., priority 2009, dated 2014):

B1: paratarg: stomatin-like protein 2 (SLP-2), SEQ ID NO: 1, antigenic paraprotein target (protein, listed as Homo sapiens)
chain: MLARAARGTGALLLRGSLLASGRAPRRASSGLPRNTVVLFVPQQEAWVVERMGRFHRILEPGLNILIPVLDRIRYVQSLKEIVINVPEQSAVTLDNVTLQIDGVLYLRIMDPYKASYGVEDPEYAVTQLAQTTMRSELGKLSLDKVFRERESLNASIVDAINQAADCWGIRCLRYEIKDIHVPPRVKESMQMQVEAERRKRATVLESEGTRESAINVAEGKKQAQILASEAEKAEQINQAAGEASAVLAKAKAKAEAIRILAAALTQHNGDAAASLTVAEQYVSAFSKLAKDSNTILLPSNPGDVTSMVAQAMGVYGALTKAPVPGTPDSLSSGSSRDVQGTDASLDEELDRVKMS
B2: SLP-1: recombinantly expressed human stomatin family member (protein)
chain: MLGRSGYRALPLGDFDRFQQSSFGFLGSQKGCLSPERGGVGTGADVPQSWPSCLCHGLISFLGFLLLLVTFPISGWFALKIVPTYERMIVFRLGRIRTPQGPGMVLLLPFIDSFQRVDLRTRAFNVPPCKLASKDGAVLSVGADVQFRIWDPVLSVMTVKDLNTATRMTAQNAMTKALLKRPLREIQMEKLKISDQLLLEINDVTRAWGLEVDRVELAVEAVLQPPQDSPAGPNLDSTLQQLALHFLGGSMNSMAGGAPSPGPADTVEMVSEVEPPAPQVGARSSPKQPLAEGLLTALQPFLSEALVSQVGACYQFNVVLPSGTQSAYFLDLTTGRGRVGHGVPDGIPDVVVEMAEADLRALLCRELRPLGAYMSGRLKVKGDLAMAMKLEAVLRALK
B3: MPMGp800E08596: RZPD clone coding for paratarg (protein)
chain: B1 chain
modifications: left off: small tags and cut ends
notes: RZPD clone coding for paratarg
B4: MPMGp800E08580: RZPD clone, NM_004819.1 (protein, UniProt Q92797 1-1274, looked up)
Symplekin: MASGSGDSVTRRSVASQFFTQEEGPGIDGMTTSERVVDLLNQAALITNDSKITVLKQVQELIINKDPTLLDNFLDEIIAFQADKSIEVRKFVIGFIEEACKRDIELLLKLIANLNMLLRDENVNVVKKAILTMTQLYKVALQWMVKSRVISELQEACWDMVSAMAGDIILLLDSDNDGIRTHAIKFVEGLIVTLSPRMADSEIPRRQEHDISLDRIPRDHPYIQYNVLWEEGKAALEQLLKFMVHPAISSINLTTALGSLANIARQRPMFMSEVIQAYETLHANLPPTLAKSQVSSVRKNLKLHLLSVLKHPASLEFQAQITTLLVDLGTPQAEIARNMPSSKDTRKRPRDDSDSTLKKMKLEPNLGEDDEDKDLEPGPSGTSKASAQISGQSDTDITAEFLQPLLTPDNVANLVLISMVYLPEAMPASFQAIYTPVESAGTEAQIKHLARLMATQMTAAGLGPGVEQTKQCKEEPKEEKVVKTESVLIKRRLSAQGQAISVVGSLSSMSPLEEEAPQAKRRPEPIIPVTQPRLAGAGGRKKIFRLSDVLKPLTDAQVEAMKLGAVKRILRAEKAVACSGAAQVRIKILASLVTQFNSGLKAEVLSFILEDVRARLDLAFAWLYQEYNAYLAAGASGSLDKYEDCLIRLLSGLQEKPDQKDGIFTKVVLEAPLITESALEVVRKYCEDESRTYLGMSTLRDLIFKRPSRQFQYLHVLLDLSSHEKDKVRSQALLFIKRMYEKEQLREYVEKFALNYLQLLVHPNPPSVLFGADKDTEVAAPWTEETVKQCLYLYLALLPQNHKLIHELAAVYTEAIADIKRTVLRVIEQPIRGMGMNSPELLLLVENCPKGAETLVTRCLHSLTDKVPPSPELVKRVRDLYHKRLPDVRFLIPVLNGLEKKEVIQALPKLIKLNPIVVKEVFNRLLGTQHGEGNSALSPLNPGELLIALHNIDSVKCDMKSIIKATNLCFAERNVYTSEVLAVVMQQLMEQSPLPMLLMRTVIQSLTMYPRLGGFVMNILSRLIMKQVWKYPKVWEGFIKCCQRTKPQSFQVILQLPPQQLGAVFDKCPELREPLLAHVRSFTPHQQAHIPNSIMTILEASGKQEPEAKEAPAGPLEEDDLEPLTLAPAPAPRPPQDLIGLRLAQEKALKRQLEEEQKLKPGGVGAPSSSSPSPSPSARPGPPPSEEAMDFREEGPECETPGIFISMDDDSGLTEAALLDSSLEGPLPKETAAGGLTLKEERSPQTLAPVGEDAMKTPSPAAEDAREPEAKGNS
B5: MPMGp800P18577: RZPD clone, NM_004323.3 (protein, UniProt Q99933 1-345, looked up)
BAG family molecular …: MAQRGGARRPRGDRERLGSRLRALRPGREPRQSEPPAQRGPPPSGRPPARSTASGHDRPTRGAAAGARRPRMKKKTRRRSTRSEELTRSEELTLSEEATWSEEATQSEEATQGEEMNRSQEVTRDEESTRSEEVTREEMAAAGLTVTVTHSNEKHDLHVTSQQGSSEPVVQDLAQVVEEVIGVPQSFQKLIFKGKSLKEMETPLSALGIQDGCRVMLIGKKNSPQEEVELKKLKHLEKSVEKIADQLEELNKELTGIQQGFLPKDLQAEALCKLDRRVKATIEQFMKILEEIDTLILPENFKDSRLKRKGLVKKVQAFLAECDTVEQNICQETERLQSTNFALAE
B6: MPMGp800P21581: RZPD clone, NM_001622.1 (protein, UniProt P02765 19-300; P02765 341-367, looked up)
Alpha-2-HS-glycoprotein chain … 1: APHGPGLIYRQPNCDDPETEEAALVAIDYINQNLPWGYKHTLNQIDEVKVWPQQPSGELFEIEIDTLETTCHVLDPTPVARCSVRQLKEHAVEGDCDFQLLKLDGKFSVVYAKCDSSPDSAEDVRKVCQDCPLLAPLNDTRVVHAAKAALAAFNAQNNGSNFQLEEISRAQLVPLPPSTYVEFTVSGTDCVAKEATEAAKCNLLAEKQYGFCKATLSEKLGGAEVAVTCMVFQTQPVSSQPQPEGANEAVPTPVVDPDAPPSPPLGAPGLPPAGSPPDSHVL
Alpha-2-HS-glycoprotein chain … 2: TVVQPSVGAAAGPVVPPCPGRIRHFKV

Legend:
[1] = system: paratarg-specific paraprotein (patients' sera); assay: Paraprotein binding to recombinant paratarg, stomatin family members and paratarg peptides/fragments (dot blot, ELISA, peptide spot analysis); set-up: species or system human; settings: for recognition by paratarg-specific paraproteins / patients' serum: ELISA, Western blotting or peptide spot analysis
Experimental: 100 ng of each recombinant protein were separated by SDS-PAGE and transferred to PVDF membrane (Millipore Immobilon) by semidry blotting. The membrane was blocked in TST/milk buffer (10% milk in 10 mM Tris/HCl, pH 7.5, 150 mM NaCl, 0.1% (v/v) Tween 20) overnight, washed and incubated for 1 h with serum in TST (paraprotein patients serum at a dilution of 1:10^8 and control patients serum at a dilution of 1:10^3). After three washings in TST, the membranes were incubated for 1 h at RT with goat anti-human IgG AP-coupled antibody (Dianova) diluted 1:5,000 in TST, subsequently washed in TST followed by AP-development.
His6-tagged fusion proteins were spotted on nitrocellulose membranes. After spotting, the protein arrays were blocked, incubated and detected as described above.
The epitopes recognized by the patients' paraproteins were identified as described before (Preuss et al, 2006). In brief: matrix-bound synthesized decamer peptides with 5 amino acids overlaps between every 2nd consecutive decamer covering the entire paratarg sequence were used to screen patients sera. Paratarg-specific paraproteins binding to the corresponding paratarg epitopes were visualized by ECL technique according to the suppliers' instructions (PIERCE, Rockford, USA). Finally, matrix stripes were photographed for documentation.
Full-length paratarg was recombinantly expressed in HEK293 cells under control of CMV promoter introducing a FLAG tag at the C-terminus of the protein. Total cell extract was prepared and coated indirectly to Nunc maxisorb plates using anti-FLAG mAb (Sigma). Elisa was performed according standard protocols. Partially truncated paratarg fragments were processed accordingly.
Paratarg fragments were obtained by PCR amplification using suitable primers and verified by sequencing. These fragments were subcloned into the vector and expressed as described before.

[2] = system: paraproteins of serum pool #1 (MGUS/MM patients' sera); assay: Serum profiling on high density protein arrays (paraprotein screening of hEx1 human fetal brain macroarray); assay type: binding; set-up: key: Paraprotein-binding quality/strength are ++, + and ±.; Paraprotein-binding quality/strength are ++, + and ±.; Paraprotein-binding quality/strength are ++, + and ±; settings: serum pool #1 (n=114), each serum diluted 1:10^8
Experimental: Screening analyses were performed on hEx1 high-density protein expression cDNA libraries, created in Hans Lehrach's laboratory at the Max Planck Institute for Molecular Genetics in Berlin (Germany) and obtained from the Reference Center of the German Human Genome Project (RZPD) (Bussow et al, 1998). These high-density filter membranes display proteins that were expressed from a modified pQE protein expression vector (Qiagen). This vector featured a hexahistidine tag, a T5 promoter and two lac operator sequences, which allowed repression during the growth phase by overexpression of the Lac repressor protein, and subsequent induction of protein expression with isopropyl-beta-D-thiogalactopyranoside (IPTG).
High density protein arrays of the protein expression set of the hEx1 library were obtained from the German Resource Center for Genome Research (RZPD) and provided by Dr. Mahlknecht from our department. They consist of 37,200 independent clones derived from a human fetal brain cDNA expression library and were used for autoantibody detection. For serum profiling, the filters were blocked in 10% (w/v) non-fat, dry milk powder in TBST (TBS, 0.1% (v/v) Tween 20) at 4° C. overnight, washed twice in TBST, and incubated for 1 h with serum pool #1 at a dilution of 1:10^8 for each serum. Following three 30-min TBST washes and subsequent incubation with the secondary antibody (goat anti-human IgG biotinylated, Dianova, diluted 1:2.500) and Strep-PDX (1:15.000) in 2% (w/v) Milk/TBST, the filters were washed three times for 30 min in TBST. This was followed by detection using Pharmacia ECL system. Positive signals were localized according to the manufacturer's protocol. Corresponding clones were obtained from RZPD.
In this study we screened a human high-density protein array containing 37,200 independent recombinant proteins derived from a human fetal brain expression library with sera obtained from patients with monoclonal gammopathy of undetermined significance (MGUS) and multiple myeloma (MM).
The signal pattern obtained from the screening with the paraprotein pools at a dilution of 1:10^8 were compared with the patterns obtained from screening with the control sera from clinically healthy donors and to background incubations. […] 5′- and 3′-tag sequencing of these clones was performed, and their sequences were used for BLAST searches against public databases at NCBI.
Using serum pool #1 (paraprotein type: 15 IgA, 88 IgG, 11 oligoclonal, n=114) we identified 14 putative paraprotein targets on the human protein filter array (FIG. 1, Tab. 1). […] Sequence searches and comparisons using the in-frame sequences identified five known proteins and one unknown gene product derived from chromosome 8.

Molecule	recognition by paratarg-specific paraproteins / patients' serum [1]	Signal-quality (paraprotein-binding quality/strength) [2]	further results
SLLASGRAP [paratarg amino acid region]	recognized		
SLLASGRAPRRASSG [15 amino acid region near the N-terminal end of paratarg]	recognized by patients' serum		
stomatin: recombinantly expressed human stomatin family member	no signal		
B1			serum dilution at which recognition was detectable ([1]; individual patient sera): 10^10; titer of paraprotein-containing sera reacting with the antigen ([1]; sera of more than two patients): > 10^8
B2	no signal		
B3		++	
B4		+	
B5		+	
B6		+	
